From patent US20160129078A1, “Rhomboid Proteins and Uses Thereof” (Queen's University at Kingston, priority 2014, published 2016)

Experiments:
[1] = system: bacteria; assay: Sensitization of bacteria to tetracycline by exogenous rhomboid protein; format: cell-based, Escherichia coli; details: tetracycline 15 ug/ml
Method: Experiments were conducted to assess the ability and the utility of At1g74130 protein variants to sensitize bacteria to another antibiotic, tetracycline. In bacteria, tolerance or resistance to tetracycline is facilitated by a mechanism different from the ampicillin resistance assayed in Example 9. Unlike the breakdown of ampicillin outside the bacterial cells by secreted ampicilliase, tetracycline resistance in bacteria is based largely on the continual and effective pumping of tetracycline out of the cell by proteinaceous membrane pumps. To assess the utility of the At1g74130 for sensitizing bacteria to tetracycline, these bacterial assays were conducted in the same manner described in Example 9. The same controls and combinations were used. The final treatment level of tetracycline used in place of the ampicillin treatment was 15 ug/ml.
Experiments were conducted to assess the ability and the utility of a human rhomboid type or variant to sensitize bacteria to tetracycline. These bacterial assays were conducted in the same manner described above for the other rhomboid variants and in Example 9. The same controls and combinations were used. The At1g74130 L was the control for UBAC2 in this set of assays. The previously observed behaviours and responses were not observed for UBAC2 in this setting with the antibiotic tetracycline (FIG. 16).

[2] = system: yeast; assay: Sensitization of yeast to fungicidal agents AmB and Nys; format: cell-based, Saccharomyces cerevisiae; details: for yeast cell survival, variant added alone: 10 ug protein alone in elution buffer, no fungicide; for yeast survival, fungicidal agents together with variant protein: 10 ug protein with sub-lethal AmB and/or Nys
Method: Experiments were conducted to assess the ability of the Arabidopsis At1g74130 proteins or variants to sensitize yeast to the antifungal agents Amphotericin B (AmB) and Nystatin (Nys). Overall, these assays were conducted in a manner similar to that designed for bacteria (Example 9). In addition to the components mixed with the added proteins or variants, the antifungal AmB was also utilized as part of the delivery system. The AmB drug contains small quantities of the detergent deoxycholate, which may also assist in the delivery of proteins into the cell, as well as function as a pore forming agent itself. […] The effective co-delivery sub-lethal concentrations of the two antifungal agents or protein had little or no effect when provided individually. FIGS. 17 and 18 show results of the yeast sensitivity assays for AmB and Nys. […] In FIG. 17, the “Yeast Control” bars represent yeast cells given mock treatments with culture media (YPD) alone, YPD plus 1% AmB, YPD plus 0.5% Nys, and YPD plus 1% AmB and 0.5% Nys, respectively. The “BSA Control” bars represent another set of mock treatments with yeast cells. This set utilized the same set-up as the Yeast Control set but with added control bovine serum albumin proteins (BSA) (dissolved in the elution buffer, the same buffer used for the purification of the recombinant At1g74130 rhomboid proteins or variants). These assays represent another variation of negative controls for rhomboid protein. The “Elution Control” bars represent yeast cells mock treated using the same set-up as in the Yeast Control set but with added elution buffer alone. This variation of control assays was designed to assess for potential toxic impacts when combining elution buffer and the listed drugs, as well any effects originating from components of the elution buffer itself. The composition of the elution buffer is provided above in Example 5. With the exception of Nys, these treatments represent the first step and occur for 45 minutes before the second step when exposure to fungicides takes place. Within each set of bars, where applicable, the second 15-minute step treatment occurred with a sub-lethal dose of Nys. After a total of one hour, the treated yeast cells were plated on non-selective YPD agar plates. Plates were grown 2-3 days at 27-30° C. and assessed for surviving cell numbers (measuring cell death). Images were also taken to document cell and colony growth characteristics.
In the experimental assays, the sensitizing properties of At1g74130 or variants (sensitizing variants) were tested by adding 10 ug protein (At1g74130 or variants in elution buffer) to yeast cells (300-500 cells). To reiterate in all cases, the components were added to cultures and mixed for one hour, where Nys was added and incubated for the last 15 minutes of the treatment. Pre-treatment was designed to permit AmB and At1g74130 proteins to establish and work prior to adding Nys. After the one hour incubation, 500 cells were plated on non-selective YPD agar media and grown for 48 hours at 30′C.
The sub-lethal levels of fungicides to use in these assays were determined using dosage experiments. These assays were conducted on yeast cells without added rhomboid proteins or variants. The dosages of AmB tested ranged from 0 to 5% (v/v). […] Likewise, the Nys level was determined using a range of 0.5 to 2.5%. Yeast cells were treated for one hour with fungicides in a total volume of 400 μl YPD media before plating.
Since both the AmB buffer contained small quantities of detergent (deoxycholate being the main one), an experiment was done in which different amounts (1% and 10%) of deoxycholate were added to yeast cells to ascertain any effects. Adding deoxycholate had little effect on yeast.
This set of yeast assays was conducted in the same manner described above (Example 13) and employed the same controls and combinations. […]

[3] = system: Pseudomonas aeruginosa; assay: Impairment of lipase secretion and growth on minimal media-olive oil plates; format: cell-based; details: for growth on minimal media-olive oil agar plates: 10 ug protein, with or without 5% DMSO, olive oil as only carbon source
Text: Experiments were thus conducted to assess the ability of At1g74130 proteins or variants to impair the protein secretion process of Pseudomonas aeruginosa, a gram-negative bacterium known to be pathogenic and producers of biofilms. Any impact on the protein secretion mechanism may alter pathogenicity, growth, survival, biofilm production, and sensitivity to antimicrobial drugs. The design of the Pseudomonas assays was similar to that used for bacteria in the above examples, results, and figures. Treated Pseudomonas cells were plated onto minimal media supplemented with olive oil as the only external carbon source. The minimal media-olive oil plates consisted of the following: 50 mM MOPS, pH 7.5; 40 mM K2HPO4; 25 mM NaH2PO4; 7.5 mM (NH4)2SO4; 0.4 mM MgSO4; 0.5% (v/v) olive oil; 40 ug/ml neutral red; 20 ul trace elements (Mn, Co, Zn, Cu, and Mo); and 1.5% agar. Pseudomonas cells need to express and secrete lipases in order to break down the olive oil and allow the acquisition of carbon from the media. Cells that are impaired with respect to protein secretion will not be able to break down the olive oil for acquisition and permit subsequent growth.
Control assays were conducted on cells without added At1g74130 or variants (sensitizer variants) to determine the delivery system to use. Control assays were also conducted to determine if the 5% (v/v) DMSO delivery system used for E. coli exerted any effect. Pseudomonas cells were mock treated with Luria Broth (LB) media or 5% (v/v) DMSO for 45-90 minutes prior to plating on minimal media supplemented with olive oil as the sole external carbon source. Total volumes of 200 μl were used in these assays. The plates were allowed to grow overnight to assess the level of growth or colony formation.
In the experimental assays, the utility of At1g74130 or variants in the Pseudomonas was tested by adding 10 ug protein (At1g74130 or variants) to cells (600-800 cells) incubated for 45 minutes at 37° C., shaken, and followed by another 45 minute period at 37° C. […]

Molecule	sensitization of bacteria to tetracycline [1]	yeast cell survival, variant added alone [2]	yeast survival, fungicidal agents together with variant protein [2]	growth on minimal media-olive oil agar plates [3]	lipase secretion ([3]; assay with elution buffer and variant)
At1g74130 S: 6/7 S-form splice variant of Arabidopsis At1g74130 rhomboid protein (protein, listed as Arabidopsis thaliana) MHAIFCRRVAVGCSSPQLTKLVTKQASQSRHSLSHLLPFDLSSRFVPPYVVSRSARVHGFFAGKLGNTNLKLKFGNVMESRAGFFSSELPSHGFESGGFTGFQKRGWKSWINGANGVVFGLVIANAAVFTMWRVLGKDNMWMVKNFMLSRYSFMTGRIHTLITSGFSHVGATHIILNMMGLCYFGARIARSFGPRYLLKLYFAGALGGSVFFLSSHALSVISLKGQRVVPKDQLKVPIGKLGANGPVYAITLLDMLLYPKVTTYFGLMLRVPVFAVRESIA	no activity	no effect	dramatically reduced yeast survival	most potent impact	
At1g74130 M: 7/8 M-form splice variant of Arabidopsis At1g74130 rhomboid protein (protein, listed as Arabidopsis thaliana) MHAIFCRRVAVGCSSPQLTKLVTKQASQSRHSLSHLLPFDLSSRFVPPYVVSRSARVHGFFAGKLGNTNLKLKFGNVMESRAGFFSSELPSHGFESGGFTGFQKRGWKSWINGANGVVFGLVIANAAVFTMWRVLGKDNMWMVKNFMLSRYSFMTGRIHTLITSGFSHVGATHIILNMMGLCYFGARIARSFGPRYLLKLYFAGALGGSVFFLSSHALSVISLKGQRVVPKDQLKVPIGKLGANGPVYAITLLDMLLYPKVTTYFGLMLRVPVFAGIYSLGLNIIKMLEVCMMGKTTIP	increased the sensitivity	no effect	dramatically reduced yeast survival	reduced	moderate impairment of lipase secretion
